Measurements reported in paper PMC7367873, “Dissecting the sequence determinants for dephosphorylation by the catalytic subunits of phosphatases PP1 and PP2A” (Nature Communications, 2020).
Blank lines part the entries; values can stand above or below the molecule they belong to.

Experiments:
[1] = tested on: GFP-14-3-3β and its binding proteins; test: GFP-14-3-3β co-IP with LC-MS/MS label-free quantification, untreated versus PP1c-treated; parameters: species or system human; conditions: PP1 vs untreated; LFQ intensities; 3 replicates each
GFP-14-3-3β = GFP-14-3-3β co-IP with LC-MS/MS, untreated GFP-14-3-3β versus GFP control (14-3-3 interactome); format: binding, human; conditions: untreated vs GFP; LFQ intensities; 3 replicates each

B2: DDX5 (protein, UniProt P17844 1-614, looked up)
Probable ATP-dependent RNA …: MSGYSSDRDRGRDRGFGAPRFGGSRAGPLSGKKFGNPGEKLVKKKWNLDELPKFEKNFYQEHPDLARRTAQEVETYRRSKEITVRGHNCPKPVLNFYEANFPANVMDVIARQNFTEPTAIQAQGWPVALSGLDMVGVAQTGSGKTLSYLLPAIVHINHQPFLERGDGPICLVLAPTRELAQQVQQVAAEYCRACRLKSTCIYGGAPKGPQIRDLERGVEICIATPGRLIDFLECGKTNLRRTTYLVLDEADRMLDMGFEPQIRKIVDQIRPDRQTLMWSATWPKEVRQLAEDFLKDYIHINIGALELSANHNILQIVDVCHDVEKDEKLIRLMEEIMSEKENKTIVFVETKRRCDELTRKMRRDGWPAMGIHGDKSQQERDWVLNEFKHGKAPILIATDVASRGLDVEDVKFVINYDYPNSSEDYIHRIGRTARSTKTGTAYTFFTPNNIKQVSDLISVLREANQAINPKLLQLVEDRGSGRSRGRGGMKDDRRDRYSAGKRGGFNTFRDRENYDRGYSSLLKRDFGAKTQNGVYSAANYTNGSFGSNFVSAGIQTSFRTGNPTGTYQNGYDSTQQYGSNVPNMHNGMNQQAYAYPATAAAPMIGYPMPTGYSQ
Difference (log2), PP1 vs untreated [1]: 0.5082 log2
Difference (log2), untreated vs GFP (GFP-14-3-3β): 0.1802 log2

B4: PABPC4 (protein, UniProt Q13310 1-644, looked up)
Polyadenylate-binding protein …: MNAAASSYPMASLYVGDLHSDVTEAMLYEKFSPAGPVLSIRVCRDMITRRSLGYAYVNFQQPADAERALDTMNFDVIKGKPIRIMWSQRDPSLRKSGVGNVFIKNLDKSIDNKALYDTFSAFGNILSCKVVCDENGSKGYAFVHFETQEAADKAIEKMNGMLLNDRKVFVGRFKSRKEREAELGAKAKEFTNVYIKNFGEEVDDESLKELFSQFGKTLSVKVMRDPNGKSKGFGFVSYEKHEDANKAVEEMNGKEISGKIIFVGRAQKKVERQAELKRKFEQLKQERISRYQGVNLYIKNLDDTIDDEKLRKEFSPFGSITSAKVMLEDGRSKGFGFVCFSSPEEATKAVTEMNGRIVGSKPLYVALAQRKEERKAHLTNQYMQRVAGMRALPANAILNQFQPAAGGYFVPAVPQAQGRPPYYTPNQLAQMRPNPRWQQGGRPQGFQGMPSAIRQSGPRPTLRHLAPTGSECPDRLAMDFGGAGAAQQGLTDSCQSGGVPTAVQNLAPRAAVAAAAPRAVAPYKYASSVRSPHPAIQPLQAPQPAVHVQGQEPLTASMLAAAPPQEQKQMLGERLFPLIQTMHSNLAGKITGMLLEIDNSELLHMLESPESLRSKVDEAVAVLQAHHAKKEAAQKVGAVAAATS
Difference (log2), PP1 vs untreated [1]: 0.5259 log2
Difference (log2), untreated vs GFP (GFP-14-3-3β): 2.4022 log2

B5: FUBP3 (protein, UniProt Q96I24 2-572, looked up)
Far upstream element-binding …: AELVQGQSAPVGMKAEGFVDALHRVRQIAAKIDSIPHLNNSTPLVDPSVYGYGVQKRPLDDGVGNQLGALVHQRTVITEEFKVPDKMVGFIIGRGGEQISRIQAESGCKIQIASESSGIPERPCVLTGTPESIEQAKRLLGQIVDRCRNGPGFHNDIDSNSTIQEILIPASKVGLVIGRGGETIKQLQERTGVKMVMIQDGPLPTGADKPLRITGDAFKVQQAREMVLEIIREKDQADFRGVRGDFNSRMGGGSIEVSVPRFAVGIVIGRNGEMIKKIQNDAGVRIQFKPDDGISPERAAQVMGPPDRCQHAAHIISELILTAQERDGFGGLAAARGRGRGRGDWSVGAPGGVQEITYTVPADKCGLVIGKGGENIKSINQQSGAHVELQRNPPPNSDPNLRRFTIRGVPQQIEVARQLIDEKVGGTNLGAPGAFGQSPFSQPPAPPHQNTFPPRSSGCFPNMAAKVNGNPHSTPVSGPPAFLTQGWGSTYQAWQQPTQQVPSQQSQPQSSQPNYSKAWEDYYKKQSHAASAAPQASSPPDYTMAWAEYYRQQVAFYGQTLGQAQAHSQEQ
Difference (log2), PP1 vs untreated [1]: 0.5248 log2
Difference (log2), untreated vs GFP (GFP-14-3-3β): 0.3039 log2

More lines, main results first:

Difference (log2), PP1 vs untreated [1]: 0.5277 log2
B1: PHLDB2 (protein, UniProt Q86SQ0 1-1253, looked up)
Pleckstrin homology-like …: MEEHSYIQKELDLQNGSLEEDSVVHSVENDSQNMMESLSPKKYSSSLRFKANGDYSGSYLTLSQPVPAKRSPSPLGTSVRSSPSLAKIQGSKQFSYDGTDKNIPMKPPTPLLNTTSSLSGYPLGRADFDHYTGRDSERALRLSEKPPYSKYSSRHKSHDNVYSLGGLEGRKASGSLLAMWNGSSLSDAGPPPISRSGAASMPSSPKQARKMSIQDSLALQPKLTRHKELASENINLRTRKYSSSSLSHMGAYSRSLPRLYRATENQLTPLSLPPRNSLGNSKRTKLGEKDLPHSVIDNDNYLNFSSLSSGALPYKTSASEGNPYVSSTLSVPASPRVARKMLLASTSSCASDDFDQASYVGTNPSHSLLAGESDRVFATRRNFSCGSVEFDEADLESLRQASGTPQPALRERKSSISSISGRDDLMDYHRRQREERLREQEMERLERQRLETILSLCAEYTKPDSRLSTGTTVEDVQKINKELEKLQLSDEESVFEEALMSPDTRYRCHRKDSLPDADLASCGSLSQSSASFFTPRSTRNDELLSDLTRTPPPPSSTFPKASSESSYLSILPKTPEGISEEQRSQELAAMEETRIVILNNLEELKQKIKDINDQMDESFRELDMECALLDGEQKSETTELMKEKEILDHLNRKIAELEKNIVGEKTKEKVKLDAEREKLERLQELYSEQKTQLDNCPESMREQLQQQLKRDADLLDVESKHFEDLEFQQLEHESRLDEEKENLTQQLLREVAEYQRNIVSRKEKISALKKQANHIVQQAQREQDHFVKEKNNLIMMLQREKENLCNLEKKYSSLSGGKGFPVNPNTLKEGYISVNEINEPCGNSTNLSPSTQFPADADAVATEPATAVLASQPQSKEHFRSLEERKKQHKEGLYLSDTLPRKKTTSSISPHFSSATMGRSITPKAHLPLGQSNSCGSVLPPSLAAMAKDSESRRMLRGYNHQQMSEGHRQKSEFYNRTASESNVYLNSFHYPDHSYKDQAFDTLSLDSSDSMETSISACSPDNISSASTSNIARIEEMERLLKQAHAEKTRLLESREREMEAKKRALEEEKRRREILEKRLQEETSQRQKLIEKEVKIRERQRAQARPLTRYLPVRKEDFDLRSHVETAGHNIDTCYHVSITEKTCRGFLIKMGGKIKTWKKRWFVFDRNKRTFSYYADKHETKLKGVIYFQAIEEVYYDHLKNANKSPNPLLTFSVKTHDRIYYMVAPSPEAMRIWMDVIVTGAEGYTHFLL
Difference (log2), untreated vs GFP (GFP-14-3-3β): 1.653 log2

Difference (log2), PP1 vs untreated [1]: 0.5123 log2
B3: STT3A (protein, UniProt P46977 1-705, looked up)
Dolichyl-diphosphooligosacchar …: MTKFGFLRLSYEKQDTLLKLLILSMAAVLSFSTRLFAVLRFESVIHEFDPYFNYRTTRFLAEEGFYKFHNWFDDRAWYPLGRIIGGTIYPGLMITSAAIYHVLHFFHITIDIRNVCVFLAPLFSSFTTIVTYHLTKELKDAGAGLLAAAMIAVVPGYISRSVAGSYDNEGIAIFCMLLTYYMWIKAVKTGSICWAAKCALAYFYMVSSWGGYVFLINLIPLHVLVLMLTGRFSHRIYVAYCTVYCLGTILSMQISFVGFQPVLSSEHMAAFGVFGLCQIHAFVDYLRSKLNPQQFEVLFRSVISLVGFVLLTVGALLMLTGKISPWTGRFYSLLDPSYAKNNIPIIASVSEHQPTTWSSYYFDLQLLVFMFPVGLYYCFSNLSDARIFIIMYGVTSMYFSAVMVRLMLVLAPVMCILSGIGVSQVLSTYMKNLDISRPDKKSKKQQDSTYPIKNEVASGMILVMAFFLITYTFHSTWVTSEAYSSPSIVLSARGGDGSRIIFDDFREAYYWLRHNTPEDAKVMSWWDYGYQITAMANRTILVDNNTWNNTHISRVGQAMASTEEKAYEIMRELDVSYVLVIFGGLTGYSSDDINKFLWMVRIGGSTDTGKHIKENDYYTPTGEFRVDREGSPVLLNCLMYKMCYYRFGQVYTEAKRPPGFDRVRNAEIGNKDFELDVLEEAYTTEHWLVRIYKVKDLDNRGLSRT
Difference (log2), untreated vs GFP (GFP-14-3-3β): 0.4915 log2
